Test results published in the domain aggregation screens of Martell et al. (2025).

Experiment: soluble fraction after stress (log2 fold change); higher = more stays soluble; pooled small domains, quantitative proteomics
Conditions: stress: 50 degC
Method in brief: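 Pooled custom libraries of small protein domains were each held under stress at 50°C. The read-out, high-throughput quantitative proteomics, tracked how much of each protein stayed soluble. This is reported as a base-two log fold change used to indicate aggregation propensity. Higher values mean more protein remains in solution.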

Sequence | soluble fraction (log2)
HMKTKMTPELTTVIEAQIQKEWSPEQISGWLKKTHPVSVSHQRIYQHIQADRQQGGTLHQHLRQAK | 0.163
HMIMDQTILRKQRELTDRLNRYRNEYYNHNKPSVSDEVYDRLFDELQSLEKETGVQMANSPTTTVG | -0.0145
HMETLETYTSRLRQLEDITNNFKGVDKSFAIQAGREIRVMVVPEQVSDADMILMARDISKAIEAELEYPGQ | -0.0847
HMGYDSYDADTIPKLKIGSIVEHPKFGEGSIISKAGAEVTIAFKIKGVKKINLEYTSIKVLK | -0.935
HMPSDLQATLRAVQGMLQGVEGVDARLAGQRILLEGDSADARARERAAAIAGIFPGVVIDFVG | -0.155
HMGHASPGNREALQFALERHQARAAEFAEKAGLSIANASTKFKQLWEQGFLMRNESVADSGGVEFLYQR | -0.0221
HMGGFSVTAEAFDGTPEVGKTVGFTAGSTKIKVEDTKGDATFGTILEKETVGFGEGKYTYFYIGL | -0.223
HMSTLKSALDEIPGIGAARKRALLNHFGSTRVISSVGVKDLEQVEGVSKKIALLIYGYFHDK | -2.06
HMPDPHSEARNIVLNQLNFMPRSRKELETALAKRNIEADVAKIVLDRFEEIGMVDDAAYAEL | 0.159
HMDPTVSGQTGSVVREIRPGVPGEVELSVPLYGIRRWQAMADGILAEGTRVTVIQAEGVRLSVRPV | -0.0839
HMIRSNLAEQAYAQLKALIHDFQLLPGDRFSENEMGTRLGVSRTPVREALFRLRNEGFLEVESKAGWYVK | -2.38
HMSDPELNDNEKKIYDIIFNKKSMDLTELKNLSELSNKQWDKGIKSLSKQDFVKVIKTEEALIVELV | -0.302
HMNIEEQVVAEVLVKDFMKQLTPRDIHILELRKNGYTYQEIAGQLGYHTHSAVKKRVDRLAEQWLAYTQGH | -1.53
HMESPLEQLTNRELQTLQMLGKGLSTKQIAAQLNLSVKTVETYRENLKRKLNLDSGSELIRYAIHRSNE | 0.469
HMPKYLNIYHELAQRIQEGALPAETKLPSETELMQEFEASRGTVRKAIDALQEKGFVRKHQGKGVFVLSQ | -0.371
HMESILDDFPGLGEKRKKALLEHFGSISKIKAATVGQLREVDGIGFETAAALREFLDANFPA | 0.158
HMSSSYTEMQLDKLKKLLEKETLLSSEKSELKSLIHDFDKIPEVVSPLIVGEYLRLKNKYIAVINSLE | -0.214
HMNDVHELPYSSFIEMVERGHVISVTVKHINIEFESTKNENYRTIAPQAMTPPYLELLLKNKDSVKVTFLP | -1.69
HMYAMTAEDWIVSGNRKYINDDLQGAIADYTKAIEIDPNYAAIYLVRGKAKYELKNYQGAIEDYTKAIE | -1.13
HMTSEPFYNPRRPQPYWTSETDRHTTYADAVRALAREFSETPEWVESNMGETNDLQEIRRNLSRVKSG | 0.144
HMDKQEKIHKKKIIILEALKRLLQNDVYSRITVQAVADEAGFSKGGLLHYFPTKEEMYIEFMEY | -0.0218
HMARRKRDIDSDINVKVFEHWLDNLDSASRESFSAFAEETFSPIQVYLYAKFLGYESSIIAVDHWVAVAYP | 0.104
HMLPLGSNEYETAVIKHLASGVQDADEIQRLTGIDQTSLNTALTMLELAGTIRPLGNNHWTL | 0.167
HMSQDEKITNYIYEGNKNTQTEAFVEAEKSYRKALSLSPEKPEALYNLGNTHFLDKQYDEASQRFF | 0.0647
HMPGKVSDAGATAKDNRLFLEAVFWRVRTGSPWRDLPPAFGHWNSQFRRFRRWAKAGVFESLFNA | 0.0893
HMPALELLVESKKPLLIHGEKIAEDINLFDREKYFIDDELIRIVKEFPSLKIILEHVSSKYGAD | -1.5

Sequence | soluble fraction (log2)
HMAVTEVKTTAVVNMRSSDSEKADKLGKAQIGDTFRVLEQRANGWTKLTDGTQEFFIKSEYLEAIA | 0.0956
HMDVQPTTTKTMFYTVQQGETLFSISRKFGISVEEITKKNPLASSGLTVGMELLLPEKKEINSTIQS | 0.265
HMGQLIGKEEAKQIALSRAGVAEGDISRYESELDTDDGKTKYEISFHVGRVEYDIEINAVTGAVEKFEMDN | 0.131
HMPRYSGMFAAWLHKALARMGKSMSDSARSAFTERVELDYSSANNELQKLSLLVGDRKVITEADVMRAIG | -0.292
HMGAFAIHTASELSAGMRIRHERFGPGVITGIDTANPASGARIQVDFDNGTSKTLLLSYAKFQI | -0.622
HMNIAAVIGQTGVLQDDLKAGEQGTVKADNKLWTAVLAEGEEAVKKEERVDIVAVEGVKLIVRRNI | 0.0397
HMRAERVQITDPYIELHTGPGRGFPIFFVAPREQWISIELRHTDWFKVRAVGGQVGWVQRKQLEST | -0.455
HMYSLGPKERSIVSFIANRPGSRSGQIAKSLQIPLPTIKRILNGLVENKVIARHGIGAGTNYVVEDQA | -0.594
HMSTFTPYLVKVTTSVLNIRKGAGTNYGTNGSIRDMGTYTIVAEADGQGASKWGKLKSGAGWISLDYTKK | -1.94
HMSISSSEAARSAVASSGGTVLGVSKASHGGYKAWAVRIQRADGSVVTGYVDRASGTVYDWVVNQAA | -0.3
HMNYIEWKNTFKKYLYLLPIKEEKETLAYFDEQYNKLNPKDLDNVENIFSDPIDKAAFVVAFYLEMEDEIK | -0.612
HMNVSVSITKELQVYINDERISSSALESTLKSKLAGIENPTIILRAEEGVPIEKAVNVMDIANRNRYKIVL | -0.522
HMAQQEMEIIPLRHRQVEQVMPTLRPLLEPGAALSGMNNQLILRASRKNREEIKQALAVIDT | 0.172
HMLAQVSDEGPIRAMVEAVMARSTQQLEDYKNGKVKLRQYFFGEVMKAAKGKANPTVINKLLDEMLPETL | 0.255
HMFTDAEIKQFAAAAVEVTKIQQDSTISAADKQPKMLAVVQSSGLPPEKFNQIGQAAAADPALQQRIQA | 0.156
HMQAPVVNHDLIKSFERQWREIKATAKGKVRSVNLSDARSILQSFLNTLQKGPGTDSLISSVQNELSLIA | -0.00186
HMNIYFNIEDAVANAVVENGKMSAAIYEKNVDTGEVAKLAEVSMPVMGGNINITKTLLTKALISQLP | -0.384
HMWDRFGELDSAEEINRIAAAELREGDIDALKVLAEENGLDKDDVEDYIDRLIDELTTPELAAIGKLDV | 0.0934
HMSTVISPLPGNIIKVLVPEGKSVKRGDTILTIESMKMENSIKAAYDGVVKKIYVQQAQIVMQGDPLFDL | -1.24
HMRTTTGSEGMIGSIGKAKTDLAPDGKIFIHGELWDATSSSPVSAGQKIEVTQIEGLKLHVKPVL | 0.268
HMDQILIHLKEGIDVTDVQPMLKALDLNVRMFNRDKNIIVISVLNRELDAIPQTIAALRPWEELFDSA | -0.00536
HMSSDEAEYKLLLGQEGVAKSPLRPSGVVDFSGRRLDVQTLGDFIESGETVVVKQVNGHRVLVERK | 0.158
HMVSLLDWAYKQVRRMLFSGDLPQGQKIVVAQLANQLSISPTPVKEALNRLAVEGLLEAVPRRGFQVR | -0.229
HMKRITKKQLSQQLEQFFSSQPGKKLTLKDIFRALHLDTHPLKMLAMDIMEEMAWDDFITKKGENAYQLNT | -0.729
HMFAQDQLFKKDNSKVDVKILEINTTEIKYKLFTYQDGPTITVAKKDVALIIYQNGVHEVIT | -2.15
HMANEGWDIYKLDIRNHKQPNGEYYSEKEIQSTINNTFGKGSFNVDWKKYEKDKEYREKTNYYYFQAKYFV | -0.19

Sequence | soluble fraction (log2)
HMPEVTMSYSARNQVVSFSKATQYEIVDEFGTVVLRGVGNQATLRYLSRGDYFVNFGAGTEVLKK | 0.000609
HMQYPSSLDSRAKQSLYDNLERNEILALALDNVIQSNKLDGWRDGGIKERKLRLAINNLLKNDEHTDNIME | -0.0155
HMTGIRVYPNPTSSELRFSVATDAALYDATGARLRVVRGSDMMDIRDLASGTYYVRFADGSTQSVVVT | -0.198
HMDAEVEHLFRIIAELKEKNVAIIYISHKMDEIFRISDDITVYRDGEYIATDRAENLNVDKVIQLMVGREV | -0.339
HMDTSADEVKQLIASFVEQEDKRKPLSDQKIVELLAEKEQKISRRTVAKYRDALNIPSSSKRKRF | 0.0434
HMVSVLDHIVGIGAKRRQSLWNHFGTIDKIKAASIDELLKAPGMNRPSAEAVYYFFEAQRQLRGK | -0.744
HMGQAEEVRYSTFLDEVRNGRIEQVVLQGEHIIGTRKDKTVFSVFNPETDYTALIGTLSKSGVTIEGRP | 0.081
HMHLRYTYIYDNENRVTSKEASKWDSTQEAWVPYFKMNVSYVNNEVELSYARWNSKSNAYDSSIKKTI | -2.36
HMKTGIGIVEANGGLRLRSQASTSSDVLSTAHNGDNVVVIRQVGNWYLVNYNLKIGYMHSDYITFKE | -4.82
HMTKQIILVHVAGKVKKPDVYPLLQGSRVADAIKAAGGAKKGVELNDINLARVLIDGEQVFVGYVPE | -1.58
HMKDRNISSSVLEILSKDPDHTYNYKQIAALLGVKDAFIRKRIVTLLAQLAKDGHLDEISRGKYQIK | -1.02
HMGASTQLVEIKNAYENGEWQNVIDLAGKLHEKYNGSEEDKEAQEMAKNSQSKLDEAAAAKAAEEA | -0.033
HMKEEVMVPNVVGKELSAALLEMQVKELYPKLQLKYSNFVDDKGTVLEQSPPAGSIVKAGRRINLVVSRGA | 0.144
HMRAVFEQLRIGQTLAGVVKAQEKGFSLVEIDGQTVAMRLPHPAAVGDTLRLRFAGHMPQAVFLLES | -0.561
HMAPKSALKIIEQISNNPRATMTDLANLTGYSRRWVAQTIKRLQEENIIKRIGSDKSGYWEIIG | -0.321
HMVDLLDETLIEFYAFANNLIKDLETNSEKYGGMSQFEKELIFNEQITQYQRKLKIDLQDEVG | -1.54
HMLAKRYLVYGSGSLNSAYPDTKNIAYGIDSGKGFFLVGILTENEASKLKLKGYYVIEDFPLDFH | -1.43
HMYNTDAMGVRIGELRRAKGLTQEAFAKTLGISAQAVSKWETGLGFPDISLLPMIAETLGTKIETLFGAE | -0.0826
HMGVPELHKGEIVQAVVEKVLGEGLLRVNLKGMTVEAATSLRLNPGQQLLLRSEGIENGRQVLR | 0.00868
HMTIENTDTFLETLWEQVQRASVDENGIITSRVLIWDEGTKLDEILSWFDKRHSLGALYLQFG | -2.47
HMKLINEDLNNEIVFEENKVNLLVIENKKKFVQFIQEIIKQINGDEGKFSLFDINTELKIHDKIDII | 0.185
HMEEINTAPVFKNIIEIAEYAKTKFTTVEEIPKMIEFIETANSKLDNPHDEESVNELINALSTNIRKNV | 0.193
HMQRADYLILYYIKMQAEQHPDSKVYLADLAAVMGLKVTELSKAVEKLQDNGFVAWKTDREAGRTYVELS | -1.31
HMDTIASESVRNRIEELISNENPKKPLSDQALVKMLQEFDIKIARRTVAKYREMLKIPPSSKRKQV | 0.0652
